According to article PMC6499999:

Tests used:
[1] = molecular target: RelSt3 relaxase encoded by ICESt3 from Streptococcus thermophilus (Streptococcus thermophilus (ICESt3)); experiment: cross-linking; 5 ug RelSt3 in 20 uL with 0.001 to 0.1% glutaraldehyde, 15 min at room temperature, stopped with glycine; 10% SDS-PAGE, Coomassie
[2] = molecular target: RelSt3 relaxase encoded by ICESt3 from Streptococcus thermophilus (Streptococcus thermophilus (ICESt3)); experiment: AUC; sedimentation velocity at 1 and 5 uM in 20 mM Tris-HCl pH 7.5, 500 mM NaCl, 25 °C, 42,000 rpm, absorbance at 280 nm; c(s) analysis with Sedfit
[3] = molecular target: RelSt3 relaxase encoded by ICESt3 from Streptococcus thermophilus (Streptococcus thermophilus (ICESt3)); experiment: SEC; calibrated Superdex 200 gel filtration, final step of purification; single elution peak at 72.4 mL, apparent molecular weight about 88 kDa against a predicted 48.5 kDa

- stoichiometry N [1]: 2
- stoichiometry N [2]: 2
- stoichiometry N [3]: 2
Substance: RelSt3 relaxase encoded by ICESt3 from Streptococcus thermophilus (enzyme)
